These are literature values, as cited in publication PMC8043720.

In this data set the target is NaV1.7 (Homo sapiens) (UniProt Q15858).

pKd: −log10 of the molar value.

Chain of UniProt Q15858 (Q15858 whole entry): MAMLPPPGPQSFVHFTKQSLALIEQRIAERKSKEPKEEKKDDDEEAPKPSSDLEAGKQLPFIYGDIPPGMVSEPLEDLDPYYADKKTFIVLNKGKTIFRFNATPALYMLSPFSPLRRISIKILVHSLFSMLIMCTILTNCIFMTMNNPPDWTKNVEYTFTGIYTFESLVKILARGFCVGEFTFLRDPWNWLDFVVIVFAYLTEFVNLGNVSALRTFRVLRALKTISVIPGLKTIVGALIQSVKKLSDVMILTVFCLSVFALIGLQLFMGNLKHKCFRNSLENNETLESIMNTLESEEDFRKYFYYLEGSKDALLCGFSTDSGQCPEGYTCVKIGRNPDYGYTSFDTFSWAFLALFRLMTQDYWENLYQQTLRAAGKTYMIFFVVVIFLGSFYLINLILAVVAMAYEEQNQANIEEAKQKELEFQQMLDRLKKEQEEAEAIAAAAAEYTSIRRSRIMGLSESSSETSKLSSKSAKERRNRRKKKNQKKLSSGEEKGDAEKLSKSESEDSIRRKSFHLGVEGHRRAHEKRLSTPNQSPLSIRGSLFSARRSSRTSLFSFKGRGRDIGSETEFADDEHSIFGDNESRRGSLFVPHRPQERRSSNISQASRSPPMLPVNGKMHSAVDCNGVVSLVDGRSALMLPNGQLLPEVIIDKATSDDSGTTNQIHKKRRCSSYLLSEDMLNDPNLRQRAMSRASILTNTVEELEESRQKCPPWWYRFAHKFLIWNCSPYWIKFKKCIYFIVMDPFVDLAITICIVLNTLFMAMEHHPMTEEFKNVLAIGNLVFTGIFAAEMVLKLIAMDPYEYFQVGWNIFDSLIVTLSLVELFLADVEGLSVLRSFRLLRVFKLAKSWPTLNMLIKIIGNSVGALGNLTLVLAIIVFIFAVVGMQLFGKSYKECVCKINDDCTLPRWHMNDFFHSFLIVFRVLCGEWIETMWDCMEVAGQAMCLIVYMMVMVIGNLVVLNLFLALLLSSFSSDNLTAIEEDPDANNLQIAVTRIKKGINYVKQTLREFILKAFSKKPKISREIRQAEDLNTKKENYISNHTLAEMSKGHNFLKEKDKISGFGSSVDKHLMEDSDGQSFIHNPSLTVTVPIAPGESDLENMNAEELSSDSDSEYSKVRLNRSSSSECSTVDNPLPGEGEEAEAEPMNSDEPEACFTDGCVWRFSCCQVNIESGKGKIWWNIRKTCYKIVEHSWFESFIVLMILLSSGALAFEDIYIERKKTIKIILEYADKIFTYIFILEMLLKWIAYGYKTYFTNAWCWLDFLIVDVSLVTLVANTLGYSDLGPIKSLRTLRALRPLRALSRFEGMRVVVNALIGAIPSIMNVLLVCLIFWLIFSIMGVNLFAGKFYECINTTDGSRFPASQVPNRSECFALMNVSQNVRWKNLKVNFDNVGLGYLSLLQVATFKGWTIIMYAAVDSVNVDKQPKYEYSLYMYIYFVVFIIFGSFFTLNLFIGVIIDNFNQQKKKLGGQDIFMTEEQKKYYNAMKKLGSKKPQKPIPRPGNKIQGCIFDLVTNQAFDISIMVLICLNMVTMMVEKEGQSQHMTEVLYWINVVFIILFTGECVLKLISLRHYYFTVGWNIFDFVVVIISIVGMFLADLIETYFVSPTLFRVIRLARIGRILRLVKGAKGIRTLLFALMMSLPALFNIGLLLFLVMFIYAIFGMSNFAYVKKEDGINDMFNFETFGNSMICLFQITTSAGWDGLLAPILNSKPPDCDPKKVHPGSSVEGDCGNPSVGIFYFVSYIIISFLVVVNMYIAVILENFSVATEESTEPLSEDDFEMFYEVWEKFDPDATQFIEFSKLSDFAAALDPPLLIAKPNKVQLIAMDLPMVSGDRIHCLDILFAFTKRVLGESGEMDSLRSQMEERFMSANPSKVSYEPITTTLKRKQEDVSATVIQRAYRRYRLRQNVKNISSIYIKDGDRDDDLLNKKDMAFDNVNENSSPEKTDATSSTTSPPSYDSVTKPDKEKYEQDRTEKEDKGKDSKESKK

Turning to HwTx-IV (from UniProt P83303), the pKd was 7.59.
